Measured values as given in patent publication US20220106399A1 (IGM BIOSCIENCES, published 2022).

B1: anti-CD40 IgM (antibody, V domains shown)
VH: EVQLQQSGPDLVKPGASVKISCKTSGYTFTEYIMHWVKQSHGNSLEWIGGIIPNNGGTSYNQKFKDKATMTVDKSSSTGYMELRSLTSEDSAVYYCTRREVYGRNYYALDYWGQGTLVTVSS
VL: DIQMTQTTSSLSASLGDRVTITCSASQGINNYLNWYQQKPDGTVKLLIYYTSSLHSGVPSRFSGSGSGTDYSLTISNLEPEDIATYYCQQYSNLPYTFGGGTKLEIK
B2: anti-CD40 IgG (antibody, V domains shown)
VH: B1 VH
VL: B1 VL
notes: detection was with anti-human kappa

How the values were obtained:
[1] = target: T1, Recombinant human CD40-Fc (R&D Systems) (human, UniProt P25942 21-193); test: ELISA, plate coated with 1.6 ng/mL human CD40-Fc, detection with anti-human kappa-HRP; Bmax by one site-specific binding with Hill slope; reference anti-CD40 IgG
T1 construct: also called CD4O-Fc; not shown: Fc part of the bought fusion protein

[2] = target: T1, Recombinant human CD40-Fc (R&D Systems); test: ELISA, plate coated with 6.25 ng/mL human CD40-Fc, detection with anti-human kappa-HRP; Bmax by one site-specific binding with Hill slope; reference anti-CD40 IgG
[3] = target: T1, Recombinant human CD40-Fc (R&D Systems); test: ELISA on coated human CD40-Fc (1.6 and 6.25 ng/mL)
Protocol: The binding specificity of anti-CD40 IgM and anti-CD40 IgG were measured in an ELISA assay using two different antigen densities by the following method. […] All subsequent washes used PBS+0.05% Tween and all incubation steps were performed in block buffer (2% BSA in PBS). Plates were washed three times, blocked for one hour, and then washed again. The plates were then incubated for one hour with four-fold dilutions of anti-CD40-IgG and anti-CD40-IgM. After washing, the plates were incubated with a 1:6000 dilution of anti-human kappa-HRP (Southern Biotech #9230-05) in blocking buffer for 1 hour at room temperature. The plates were again washed 5 times, and then incubated with TMB substrate (BD Biosciences #555214) for 20 minutes at room temperature. The reaction was stopped with 1M H₂SO₄ and absorbance at 450 nm was read on a SpectraMax340 plate reader (Molecular Devices) using SoftMax Pro software.
Bmax was then calculated at each coating density in GraphPad Prism software using One site-Specific binding with Hill slope. […] IgM is thus more sensitive in detecting low CD40 levels than IgG.

T1 sequence (P25942 21-193 limits assumed): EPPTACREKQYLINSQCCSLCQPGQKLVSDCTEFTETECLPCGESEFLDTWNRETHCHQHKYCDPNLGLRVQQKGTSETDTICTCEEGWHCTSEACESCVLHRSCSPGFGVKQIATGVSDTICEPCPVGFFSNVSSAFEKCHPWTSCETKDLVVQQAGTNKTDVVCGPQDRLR

Binder | fold better binding than anti-CD40 IgG (ratio of Bmax) [1] [fold] | fold better binding than anti-CD40 IgG (ratio of Bmax) [2] [fold] | binding result [3]
B1 | ~5.5 | ~2.3 | –
B2 | – | – | binds
